Experimental data reported in patent publication US20180265552A1 (INSTITUT NATIONAL DE LA RECHERCHE AGRONOMIQUE, published 2018).

Target: TRCP VLP
Assay: titration, native agarose gel mobility shift

B1: Nb23 fused to EGFP (VHH)
VHH: QVQLQESGGGSVQVGGSLRVACAASGDTFSGYLAAWFRQAPGKGREGVAAINSKRHTTSYADSVKGRFTISKDNADNIMYLEMNSLKPEDTAIYYCAAADAIGLAEYWSTPTLSAARYKYWGQGTQVTVSS
For B1, the “molecular ratio between GFLV CP and Nb23:GFP at maximum mobility shift” value was ~1 Nb23:GFP per CP.
